Test results reported in patent US20030092037A1, “Elk1 phosphorylation related gene” (priority 2001, published 2003).

Test system: MAP kinase cascade activation
Experiment: Reporter activity reflecting MAP kinase cascade activation, corrected using an internal control (Elk1-GAL4 luciferase reporter in 293-EBNA cells)
Type: cell-based, human
Conditions: for Reporter activity corrected with internal control, as a factor of null vector (S/B value): 293-EBNA cells, 24 hours; for Dependence of corrected reporter activity on amount of expression plasmid: plasmid 12.5 ng, 25 ng, 50 ng and 100 ng
Description: (in the presence of 5% CO2). […] The method used for introduction was in accordance with the attached protocol. After culturing for 24 hours at 37° C., reporter activity (firefly luciferase acitivity), which reflects MAP kinase cascade activation, and reporter activity being the internal control (sea pansy luciferase) were measured using Picagene Dual (purchased from Toyo Ink Manufacturing) in accordance with the manufacturer's instructions.
Luciferase activity was measured with Perkin Elmer's Wallac ARVOTMST 1420 MULTILABEL COUNTER.
Reporter activity where an expression plasmid comprising the above gene was introduced, which reflects MAP kinase cascade activation corrected with internal control reporter activity, is shown in Table 1, which is expressed as a factor of the same reporter activity where a null vector was introduced (S/B value).

| Molecule | Reporter activity corrected with internal control, as a factor of null vector (S/B value) (25 ng/well expression plasmid) | Reporter activity corrected with internal control, as a factor of null vector (S/B value) (50 ng/well expression plasmid) | Reporter activity corrected with internal control, as a factor of null vector (S/B value) (100 ng/well expression plasmid) | Dependence of corrected reporter activity on amount of expression plasmid |
| --- | --- | --- | --- | --- |
| 18 (protein, listed as Homo sapiens) MPVQLSEHPEWNESMHSLRISVGGLPVLASMTKAADPRFRPRWKVILTFFVGAAILWLLCSHRPAPGRPPTHNAHNWRLGQAPANWYNDTYPLSPPQRTPAGIRYRIAVIADLDTESRAQEENTWFSYLKKGYLTLSDSGDKVAVEWDKDHGVLESHLAEKGRGMELSDLIVFNGKLYSVDDRTGVVYQIEGSKAVPWVILSDGDGTVEKGFKAEWLAVREIVRKRWRLVKQVSHVGVLGQWIQR | 1.8 | 2.3 | 2.9 | increases that were dependent on the amount of expression plasmid |
| 28 (protein, listed as Homo sapiens) MTSFEDADTEETVTCLQMTVYHPGQLQCGIFQSISFNREKLPSSEVVKFGRNSNICHYTFQDKQVSRVQFSLQLFKKFNSSVLSFEIKNMSKKTNLIVDSRELGYLNKMDLPYRCMVRFGEYQFLMEKEDGESLEFFETQFILSPRSLLQENNWPPHRPIPEYGTYSLCSSQSSSPTEMDENES | 1.8 | 2.3 | 2.9 | increases that were dependent on the amount of expression plasmid |
| 12 (protein, listed as Homo sapiens) MDHHQPGTGRYQVLLNEEDNSESSAIEQPPTSNPAPQIVQAASSAPALETDSSPPPYSSITVEVPTTSDTEVYGEFYPVPPPYSVATSLPTYDEAEKAKAAAMAAAAAETSQRIQEEECPPRDDFSDADQLRVGNDGIFMLAFFMAFIFNWLGFCLSFCITNTIAGRYGAICGFGLSLIKWILIVRFSDYFTGYFNGQYWLWWIFLVLGLLLFFRGFVNYLKVRNMSESMAAAHRTRYFFLL | 2.1 | 2.7 | 3.9 | increases that were dependent on the amount of expression plasmid |
| 26 (protein, listed as Homo sapiens) MALALAALAAVEPACGSRYQQLQNEEESGEPEQAAGDAPPPYSSISAESAAYFDYKDESGFPKPPSYNVATTLPSYDEAERTKAEATIPLVPGRDEDFVGRDDFDDADQLRIGNDGIFMLTFFMAFLFNWIGFFLSFCLTTSAAGRYGAISGFGLSLIKWILIVRFSTYFPGYFDGQYWLWWVFLVLGFLLFLRGFINYAKVRKMPETFSNLPRTRVLFIY | 1.6 | 3.2 | 4.1 | increases that were dependent on the amount of expression plasmid |
| 30 (protein, listed as Homo sapiens) MDARWWAVVVLAAFPSLGAGGETPEAPPESWTQLWFFRFVVNAAGYASFMVPGYLLVQYFRRKNYLETGRGLCFPLVKACVFGNEPKASDEVPLAPRTEAAETTPMWQALKLLFCATGLQVSYLTWGVLQERVMTRSYGATATSPGERFTDSQFLVLMNRVLALIVAGLSCVLCKQPRHGAPMYRYSFASLSNVLSSWCQYEALKFVSFPTQVLAKASKVIPVMLMGKLVSRRSYEHWEYLTATLISIGVSMFLLSSGPEPRSSPATTLSGLFTVGSLLEQGALLEGTRFMGRHSEFAAHALLLSICSACGQLFIFYTIGQFGAAVFTIIMTLRQAFAILLSCLLYGHTVTVVGGLGVAVVFAALLLRVYARGRLKQRGKKAVPVESPVQKV | 4.2 | 6.3 | 7.6 | increases that were dependent on the amount of expression plasmid |
| 16 (protein, listed as Homo sapiens) MSSLGGGSQDAGGSSSSSTNGSGGSGSSGPKAGAADKSAVVAAAAPASVADDTPPPERRNKSGIISEPLNKSLRRSRPLSHYSSFGSSGGSGGGSMMGGESADKATAAAAAASLLANGHDLAAAMAVDKSNPTSKHKSGAVASLLSKAERATELAAEGQLTLQQFAQSTEMLKRVVQEHLPLMSEAGAGLPDMEAVAGAEALNGQSDFPYLGAFPINPGLFIMTPAGVFLAESALHMAGLAEYPMQGELASAISSGKKKRKRCGMCAPCRRRINCEQCSSCRNRKTGHQICKFRKCEELKKKPSAALEKVMLPTGAAFRWFQ | 3.4 | 8.4 | 8.1 | increases that were dependent on the amount of expression plasmid |
